# Results published in PMC10857811 (Chem, 2024).
# Biological target: the molecule itself
# Assay: cross-linking
row,Protein,stoichiometry N
1,Pseudomonas fluorescens esterase variant p2 (T3C) (enzyme) SCFVAKDGTQIYFKDWGSGKPVLFSHGWLLDADMWEYQMEYLSSRGYRTIAFDRRGFGRSDQPWTGNDYDTFADDIAQLIEHLDLKEVTLVGFSMGGGDVARYIARHGSARVAGLVLLGAVTPLFGQKPDYPQGVPLDVFARFKTELLKDRAQFISDFNAPFYGINKGQVVSQGVQTQTLQIALLASLKATVDCVTAFAETDFRPDMAKIDVPTLVIHGDGDQIVPFETTGKVAAELIKGAELKVYKDAPHGFAVTHAQQLNEDLLAFLKR,3
2,Pseudomonas fluorescens esterase variant p4 (T3C and Q174C) (enzyme) SCFVAKDGTQIYFKDWGSGKPVLFSHGWLLDADMWEYQMEYLSSRGYRTIAFDRRGFGRSDQPWTGNDYDTFADDIAQLIEHLDLKEVTLVGFSMGGGDVARYIARHGSARVAGLVLLGAVTPLFGQKPDYPQGVPLDVFARFKTELLKDRAQFISDFNAPFYGINKGQVVSCGVQTQTLQIALLASLKATVDCVTAFAETDFRPDMAKIDVPTLVIHGDGDQIVPFETTGKVAAELIKGAELKVYKDAPHGFAVTHAQQLNEDLLAFLKR,3
3,Pseudomonas fluorescens esterase variant p3 (Q174C) (enzyme) STFVAKDGTQIYFKDWGSGKPVLFSHGWLLDADMWEYQMEYLSSRGYRTIAFDRRGFGRSDQPWTGNDYDTFADDIAQLIEHLDLKEVTLVGFSMGGGDVARYIARHGSARVAGLVLLGAVTPLFGQKPDYPQGVPLDVFARFKTELLKDRAQFISDFNAPFYGINKGQVVSCGVQTQTLQIALLASLKATVDCVTAFAETDFRPDMAKIDVPTLVIHGDGDQIVPFETTGKVAAELIKGAELKVYKDAPHGFAVTHAQQLNEDLLAFLKR,3
